ELISA data for 40 molecules are collected here from patent publication US8278415B2 (Centocor, Inc., dated 2012).

Assay in all cases: phage ELISA on coated sEGFR-MMB, chemiluminescence (background typically <200 units)
A general note: ELISA stands for enzyme-linked immunosorbent assay.

In experiment [1] the target is sEGFR-MMB (human).
Experiment [2] concerns the target sEGFR-MMB (human). This is another data set of the same source.
For experiment [3], the target named is sEGFR-MMB (human). The source holds these as a separate data set.
In experiment [4] the target is sEGFR-MMB (human). This is another data set of the same source.
The target of experiment [5] is sEGFR-MMB (human). The source holds these as a separate data set.

Like-named read-outs stand apart in the source and are kept apart here.

Sequence of sEGFR-MMB (human) (chain, as listed by the source limits assumed): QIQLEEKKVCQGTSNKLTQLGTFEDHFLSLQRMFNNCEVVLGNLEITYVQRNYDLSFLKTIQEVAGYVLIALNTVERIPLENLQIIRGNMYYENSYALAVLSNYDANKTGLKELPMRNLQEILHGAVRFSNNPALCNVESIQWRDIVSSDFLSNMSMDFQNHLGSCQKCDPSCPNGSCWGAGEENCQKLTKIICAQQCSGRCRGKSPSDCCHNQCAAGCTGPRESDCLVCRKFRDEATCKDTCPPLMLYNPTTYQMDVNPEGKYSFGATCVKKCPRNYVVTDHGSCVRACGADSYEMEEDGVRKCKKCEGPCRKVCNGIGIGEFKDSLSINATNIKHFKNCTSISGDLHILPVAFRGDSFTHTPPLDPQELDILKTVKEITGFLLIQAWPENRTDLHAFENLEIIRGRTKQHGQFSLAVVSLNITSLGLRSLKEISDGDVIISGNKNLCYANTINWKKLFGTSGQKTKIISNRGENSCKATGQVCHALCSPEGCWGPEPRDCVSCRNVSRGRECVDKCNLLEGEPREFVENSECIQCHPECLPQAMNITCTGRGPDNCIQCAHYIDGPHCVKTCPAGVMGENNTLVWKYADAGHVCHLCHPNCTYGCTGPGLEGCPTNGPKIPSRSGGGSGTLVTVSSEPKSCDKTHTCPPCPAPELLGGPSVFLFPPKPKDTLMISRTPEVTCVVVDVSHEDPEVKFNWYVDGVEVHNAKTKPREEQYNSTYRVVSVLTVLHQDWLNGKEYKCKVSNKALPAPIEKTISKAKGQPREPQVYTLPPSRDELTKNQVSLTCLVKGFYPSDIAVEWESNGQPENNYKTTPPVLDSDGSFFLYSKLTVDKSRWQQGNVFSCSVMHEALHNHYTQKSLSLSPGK

NWFSLPTLLCFPLNP [S15 library phage peptide of SEQ ID NO: 15]: in the experiment with sEGFR-MMB [1], the ELISA was 3670 units.
Same read-out and setting: under PIDDESLPVLYCVTS [S15 library phage peptide of SEQ ID NO: 17] stands 1780 units.
The molecule WMCFLEGYGASLMCQC [S20 library phage peptide of SEQ ID NO: 44] displayed an ELISA in the experiment with sEGFR-MMB [2] of 4800 units.
RDCIIFDKTVYCVI [S18 library phage peptide of SEQ ID NO: 25]: the ELISA with sEGFR-MMB [3] came out at 17100 units.
Take VSGILPILVCHPAAT [S15 library phage peptide of SEQ ID NO: 12]: in the experiment with sEGFR-MMB [1], the ELISA turned out to be 1110 units.
In the experiment with sEGFR-MMB [2], LLCATTSFRDWFVCFT [S20 library phage peptide of SEQ ID NO: 49] returned an ELISA of 4510 units.
Consider HVSLQSLPELICVVS [S15 library phage peptide of SEQ ID NO: 14], for which the ELISA in the experiment with sEGFR-MMB [1] came to 1360 units.
Regarding AKCIAFGNSVYCLN [S18 library phage peptide of SEQ ID NO: 24], in the experiment with sEGFR-MMB [3], the ELISA was 31500 units.
The same measure, in the same setting: under SDCVLFGSKLFCSA [S18 library phage peptide of SEQ ID NO: 32] stands 35300 units.
Turning to TVFTLPELVCVVAGT [S15 library phage peptide of SEQ ID NO: 20], the ELISA with sEGFR-MMB [1] turned out to be 1520 units.
In the experiment with sEGFR-MMB [2], PTCDSATRRVLTICAD [S20 library phage peptide of SEQ ID NO: 43] yielded an ELISA of 5420 units.
In the experiment with sEGFR-MMB [3], AGCIAFVDVVYCAR [S18 library phage peptide of SEQ ID NO: 23] came in with an ELISA of 6380 units.
Still for that read-out and setting: the value for AYCSFVAGDLVCQV [S18 library phage peptide of SEQ ID NO: 30] was 19800 units; that for TDCVIFGLETYCLR [P173] was 37900 units.
YICTPSDIDSWYICYL [S20 library phage peptide of SEQ ID NO: 46] had an ELISA in the experiment with sEGFR-MMB [2] of 6620 units.
For the molecule RGCVVFGDNIYCIV [S18 library phage peptide of SEQ ID NO: 35], the ELISA with sEGFR-MMB [3] came out at 22000 units.
Take GADTLPDLLCWESSL [S15 library phage peptide of SEQ ID NO: 19]: the ELISA in the experiment with sEGFR-MMB [1] was determined as 5720 units.
In turn, AFCRLDFNQWLTCLV [S19 library phage peptide of SEQ ID NO: 40] gave an ELISA in the experiment with sEGFR-MMB [4] of 2580 units.
Same read-out and setting: under MICYLVDSGNIICYK [P180] stands 8810 units.
Turning to SVCVGTAFPGWMVCGP [S20 library phage peptide of SEQ ID NO: 47], the ELISA in the experiment with sEGFR-MMB [2] came to 4770 units.
In the experiment with sEGFR-MMB [1], STITSLPTLQCWPIL [S15 library phage peptide of SEQ ID NO: 16] displayed an ELISA of 13300 units.
YDCVSFGAVAYCPQ [S18 library phage peptide of SEQ ID NO: 34] returned an ELISA with sEGFR-MMB [3] of 3200 units.
DACTMVFLWCSL [P177]: the ELISA in the experiment with sEGFR-MMB [5] was 8660 units.
Molecule TDCVRFGETIYCIV [S18 library phage peptide of SEQ ID NO: 33] displayed an ELISA with sEGFR-MMB [3] of 13300 units.
SGCLDALWQCVY [P174] yielded an ELISA in the experiment with sEGFR-MMB [5] of 34600 units.
On the same count and under the same terms, under RWCYFWWITICEL [P178] stands 7910 units.
The molecule LPDDSLPELICKVRG [P175] displayed an ELISA with sEGFR-MMB [1] of 6790 units.
On to KTCVSTTFDLWFVCFA [P176], for which the ELISA with sEGFR-MMB [2] turned out to be 37400 units.
Consider YDCMIRADGSLICWC [S19 library phage peptide of SEQ ID NO: 38], for which the ELISA in the experiment with sEGFR-MMB [4] amounted to 1290 units.
Turning to TDCIRFGVLWYCLV [S18 library phage peptide of SEQ ID NO: 28], the ELISA with sEGFR-MMB [3] amounted to 4750 units.
The same measure, in the same setting: under RACITFGKVVYCEV [S18 library phage peptide of SEQ ID NO: 29] stands 30700 units.
Regarding DSCCSFLTDGTVVCSL [S20 library phage peptide of SEQ ID NO: 45], the ELISA with sEGFR-MMB [2] came to 9540 units.
ELGLPTLLCWPTDTL [S15 library phage peptide of SEQ ID NO: 11] registered an ELISA in the experiment with sEGFR-MMB [1] of 9380 units.
As to PIFSSLPVLYCTSQL [S15 library phage peptide of SEQ ID NO: 18], the ELISA with sEGFR-MMB [1] was 1420 units.
Molecule DSCIQFANLLYCAI [S18 library phage peptide of SEQ ID NO: 27] gave an ELISA with sEGFR-MMB [3] of 53200 units.
GPCVLIRDYYLLCLE [P179] came in with an ELISA with sEGFR-MMB [4] of 14000 units.
For LPDLICAVDSGTSGA [S15 library phage peptide of SEQ ID NO: 21], the ELISA with sEGFR-MMB [1] stood at 1160 units.
For CDCREAVSASLVCRY [S19 library phage peptide of SEQ ID NO: 41], the ELISA in the experiment with sEGFR-MMB [4] worked out at 3350 units.
On to KHCILFEKTVYCAK [S18 library phage peptide of SEQ ID NO: 26], for which the ELISA with sEGFR-MMB [3] stood at 9110 units.
The molecule YRLFVDESIFFCTRL [S15 library phage peptide of SEQ ID NO: 10] returned an ELISA with sEGFR-MMB [1] of 3080 units.
